Test results as given in patent publication US20210269521A1 (L AND L BIOPHARMA, published 2021).
Numbering of substitutions follows the chain as printed. Names may count otherwise. Like-named read-outs stand apart in the source and are kept apart here. Each block holds one binder with its values, some of them ahead of it.

Tests used:
[1] = target: T1, human PD-1 extracellular domain protein expressed in Example 1 (tag not stated) (human, UniProt Q15116 25-170); test: ELISA, PD-1 coated
T1 construct: extracellular domain; also called PD-1 protein; not shown: human IgG1 Fc or his tag
Protocol: PD-1 expressed in Example 1 was diluted to a concentration of 1 μg/ml with PBS buffer, pH 7.4, and added to a 96-well microplate (Corning, CLS3590-100EA) at 50 μl per well, thereby incubating in an incubator at 37° C. for 2 hours. After discarding the liquid, a blocking solution of 5% skimmed milk (Shanghai Shenggong Biological Engineering Co., Ltd., A600669-0250) diluted with PBS was added at 200 μl per well, followed by incubating at 37° C. for 3 hours or 4° C. overnight (16-18 hours)) for blocking. Subsequently, the blocking solution was discarded, and the microplate was washed 5 times with PBST buffer (pH 7.4 PBS containing 0.05% tween-20). […] Subsequently, the microplate was washed 5 times with PBST, then 50 μl/well of 1:2500 diluted HRP-labeled secondary antibody (Jackson Immuno Research, 115-035-003) was added, thereby incubating at 37° C. for 1 hour. After washing the microplate 5 times with PBST, 50 μl/well TMB chromogenic substrate (KPL, 52-00-03) was added, then incubated at room temperature for 5-10 min. Finally, 50 μl/well of 1M H₂SO₄ was added to stop the reaction. […] Go microplate reader (ThermoFisher, 51119200) was used to read the absorption value at 450 nm and the EC50 based on the OD value was calculated.
(§1) The above-mentioned TIM-3 and PD-1 bispecific antibodies of the present invention were optimized and designed using the methods of Example 2 and Example 5, and their affinity for TIM-3 and PD-1 were tested respectively.

[2] = target: T2, human TIM-3 extracellular domain-human IgG1 Fc fusion protein (human, UniProt Q8TDQ0 22-199); test: ELISA
T2 construct: Made in house or bought (ACROBiosystems TM3-H5258); also called TIM-3-hFc; not shown: human IgG1 Fc
Protocol: Goat-anti-hFc (Jackson, 109-005-008) was diluted to a concentration of 1 μg/ml with PBS buffer (pH 7.4) and added to a 96-well microplate (Corning, CLS3590-100EA) at a volume of 50 μl/well, then incubated in an incubator at 37° C. for 2 hours (Or the antigen TIM-3 was directly used to coat the microplate with a concentration of 0.5 μg/ml, and then the antibody to be tested was directly added). After discarding the liquid, a blocking solution of 5% skimmed milk (skimmed milk powder purchased from Bright) diluted with PBS was added at 200 μl per well, and the microplate was incubated for 2.5 hours at 37° C. or overnight (16-18 hours) at 4° C. for blocking. The blocking solution was discarded, and the microplate was washed 5 times with PBST buffer (PBS with pH 7.4 containing 0.05% tween-20), then 50 μl/well of 0.5 μg/ml TIM-3-hFc (Example 1) was added and incubated for 2 hours in a 37° C. incubator. After incubation, the microplate was washed 6 times with PB ST. 50 μl/well of supernatant (containing testing antibody) or different concentrations of the antibody to be tested was added, and the microplate was incubated at 37° C. for 2 hours and washed 5 times with PBST. 50 μl/well of 1:2500 diluted HRP-labeled secondary antibody (Jackson Immuno Research, 115-035-003) was added to the microplate, incubating at 37° C. for 1 hour. After washing the microplate 5 times with PBST, 50 μl/well TMB chromogenic substrate (KPL, 52-00-03) was added to the microplate, followed by incubating at room temperature for 10-15 min.
as §1

[3] = target: T1, human PD-1 extracellular domain protein …; test: blocking ELISA, PD-1 coated, competitor biotin-labeled PD-L1
[4] = target: T3, human TIM-3 extracellular domain-his tag protein (human, UniProt Q8TDQ0 22-199); test: ELISA, human TIM-3-his
T3 construct: Made in house or bought (ACROBiosystems TM3-H5229); also called TIM-3-his; Human Tim3-his; not shown: his tag

[5] = target: T2, human TIM-3 extracellular domain-human …; test: ELISA; remark: listed apart in the source
[6] = target: T2, human TIM-3 extracellular domain-human …; test: ELISA; remark: listed apart in the source
[7] = target: T3, human TIM-3 extracellular domain-his …; test: SPR Biacore, antibody captured on Protein A, TIM-3-his in flow
Protocol: First, Protein A (Thermo Pierce, Cat #21181) was conjugated to the biosensing chip CMS (Cat. #BR-1005-30, GE), and the chip was activated with the newly prepared 50 mM NHS (N-hydroxysuccinimide) and 200 mM EDC [1-ethyl-3-(3-dimethylaminopropyl) carbodiimide hydrochloride], then 10 μg/ml Protein A prepared with 10 mM NaAC (pH 4.0) was injected. […] The flow rate was 30 μl/min, the binding time was 180 seconds and the dissociation time is 300 seconds. Subsequently, the chip was washed for 30s with 10 mM Glycine-HCl (pH 1.5) at 30 μl/min. The data were fitted with a 1:1 Langmuir model using the software of Biacore T200 evaluation version 3.0 (GE), and the affinity value KD was obtained.

[8] = target: T2, human TIM-3 extracellular domain-human …; test: ELISA on human TIM-3, OD450 against Log[nM] of antibody
Marmoset TIM-3 = target: T4, Marmoset TIM-3 (Marmoset, UniProt F7I881 21-290); test: ELISA
T4 sequence: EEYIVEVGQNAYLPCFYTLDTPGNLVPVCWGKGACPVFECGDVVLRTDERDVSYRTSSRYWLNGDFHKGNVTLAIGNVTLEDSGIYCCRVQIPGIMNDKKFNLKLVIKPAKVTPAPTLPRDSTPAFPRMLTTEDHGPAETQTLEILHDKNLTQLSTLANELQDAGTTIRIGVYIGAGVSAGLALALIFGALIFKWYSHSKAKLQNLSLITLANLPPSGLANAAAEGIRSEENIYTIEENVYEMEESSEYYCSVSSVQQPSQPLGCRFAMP

B1: bispecific antibody LB136 (bispecific antibody, human IgG4 S228P, kappa)
light: EIVLTQSPATLSLSPGERATISCRASKGVSTSGYSYLHWYQQKPGQAPRLLIYLASYLESGVPARFSGSGSGTDFTLTISSLEPEDFATYYCQHSRELPLTFGTGTKVEIKRTVAAPSVFIFPPSDEQLKSGTASVVCLLNNFYPREAKVQWKVDNALQSGNSQESVTEQDSKDSTYSLSSTLTLSKADYEKHKVYACEVTHQGLSSPVTKSFNRGEC
heavy: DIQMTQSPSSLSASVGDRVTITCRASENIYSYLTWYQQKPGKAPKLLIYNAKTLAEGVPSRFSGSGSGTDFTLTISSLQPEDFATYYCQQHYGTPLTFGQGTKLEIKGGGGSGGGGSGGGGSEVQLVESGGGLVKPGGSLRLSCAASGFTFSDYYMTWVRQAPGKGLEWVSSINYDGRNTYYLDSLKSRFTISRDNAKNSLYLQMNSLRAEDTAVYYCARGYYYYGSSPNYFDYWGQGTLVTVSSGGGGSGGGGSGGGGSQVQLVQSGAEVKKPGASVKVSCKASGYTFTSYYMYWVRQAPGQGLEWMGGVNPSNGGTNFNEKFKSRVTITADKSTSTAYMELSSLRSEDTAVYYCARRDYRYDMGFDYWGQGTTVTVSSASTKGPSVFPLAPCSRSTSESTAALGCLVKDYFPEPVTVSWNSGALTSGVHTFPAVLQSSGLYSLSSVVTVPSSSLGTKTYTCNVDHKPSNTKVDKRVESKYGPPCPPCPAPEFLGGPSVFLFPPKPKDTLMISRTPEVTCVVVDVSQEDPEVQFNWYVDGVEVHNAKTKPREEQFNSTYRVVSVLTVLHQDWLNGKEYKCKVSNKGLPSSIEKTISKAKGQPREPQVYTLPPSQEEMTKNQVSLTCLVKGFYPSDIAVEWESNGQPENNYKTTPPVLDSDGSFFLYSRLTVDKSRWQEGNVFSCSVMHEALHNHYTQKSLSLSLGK
notes: ab32VL-(G4S)3-ab32VH-(G4S)3-Ba08VH-hIgG4 with Ba08VL-κ
EC50 [1]: 0.065 nM | EC50 [2]: 0.178 nM | IC50 [3]: 1 nM

B2: bispecific antibody LB143 (bispecific antibody, human IgG4 S228P, kappa)
light: B1 light with I21L, T89V, E97D, T104G
heavy: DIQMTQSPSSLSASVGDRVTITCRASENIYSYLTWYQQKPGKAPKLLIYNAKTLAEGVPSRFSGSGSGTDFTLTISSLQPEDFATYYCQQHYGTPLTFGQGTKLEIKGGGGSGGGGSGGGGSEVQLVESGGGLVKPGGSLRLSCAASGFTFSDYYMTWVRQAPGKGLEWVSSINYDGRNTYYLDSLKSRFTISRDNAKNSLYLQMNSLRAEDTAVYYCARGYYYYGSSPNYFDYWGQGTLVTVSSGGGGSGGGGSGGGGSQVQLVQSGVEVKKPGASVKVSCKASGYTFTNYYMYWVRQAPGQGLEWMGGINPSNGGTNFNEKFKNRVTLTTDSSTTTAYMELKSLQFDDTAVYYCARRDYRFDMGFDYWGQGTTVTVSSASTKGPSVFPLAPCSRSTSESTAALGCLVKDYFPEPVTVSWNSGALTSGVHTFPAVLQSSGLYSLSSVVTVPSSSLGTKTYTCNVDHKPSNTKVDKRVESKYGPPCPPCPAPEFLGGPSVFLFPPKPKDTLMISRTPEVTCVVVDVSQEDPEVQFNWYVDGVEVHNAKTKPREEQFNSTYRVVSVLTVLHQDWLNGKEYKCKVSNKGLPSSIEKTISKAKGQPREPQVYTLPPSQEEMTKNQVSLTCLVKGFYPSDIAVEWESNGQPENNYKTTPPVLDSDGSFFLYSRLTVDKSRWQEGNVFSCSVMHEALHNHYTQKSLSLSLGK
notes: ab32VL-(G4S)3-ab32VH-(G4S)3-PemVH-hIgG4 with PemVL-κ
EC50 [1]: 0.064 nM | EC50 [2]: 0.14 nM | IC50 [3]: 1.88 nM

B5: Tim3-0028 (antibody of US20170114135A1) (antibody, V domains shown)
VH: EVQLQQSVAELVRPGASVKLSCTASGFNIKTTYMHWVKQRPEQGLEWIGRIDPADDNTKYAPKFQGKATITADTSSNTAYLQLSSLTSEDAAIYYCVRDFGYVAWFAYWGQGTLVTFSA
VL: NIVMTPTPKFLPVSSGDRVTMTCRASQSVDNYVAWYQQKPGQSPKLLIYYASNRYIGVPDRFTGSGSGTDFTFTISSVQVEDLAVYFCQQHYSSPYTFGSGTKLEIK
EC50 (Marmoset TIM-3): 36.2 nM

The next lines start with the values.

EC50 [4]: 0.11 nM | EC50 [5]: 0.095 nM | EC50 [2]: 0.087 nM | EC50 [6]: 0.084 nM | Kd [7]: 2.83 nM | koff [7]: 0.00235 s⁻¹ | kon [7]: 834000 M⁻¹ s⁻¹
B3: humanized anti-TIM-3 antibody ab6 (antibody, IgG4, V domains shown)
VH: EVQLVESGGGLVKPGGSLRLSCAASGFTFSDYYMAWVRQAPGKGLEWVANINYDGSNTYYLDSLKSRFTISRDNAKNSLYLQMNSLRAEDTAVYYCARGLYYYGGNYFAYWGQGTLVTVSS
VL: DIQMTQSPSSLSASVGDRVTITCHASQGISSNIGWLQQKPGKAFKGLIYQGSNLEDGVPSRFSGSGSGADYTLTISSLQPEDFATYYCVQFAQFPPTFGQGTKLEIK
notes: also called ab6 intact antibody

EC50 [2]: 0.036 nM | EC50 (read off the curve) [8]: ~0.2 nM | EC50 [6]: 0.09 nM | Kd [7]: 1.18 nM | koff [7]: 0.000296 s⁻¹ | kon [7]: 251000 M⁻¹ s⁻¹
B4: humanized anti-TIM-3 antibody ab32 (antibody, IgG4, V domains shown)
VH: EVQLVESGGGLVKPGGSLRLSCAASGFTFSDYYMTWVRQAPGKGLEWVSSINYDGRNTYYLDSLKSRFTISRDNAKNSLYLQMNSLRAEDTAVYYCARGYYYYGSSPNYFDYWGQGTLVTVSS
VL: DIQMTQSPSSLSASVGDRVTITCRASENIYSYLTWYQQKPGKAPKLLIYNAKTLAEGVPSRFSGSGSGTDFTLTISSLQPEDFATYYCQQHYGTPLTFGQGTKLEIK
notes: also called ab32 intact antibody
